Numbering of substitutions follows the chain as printed.

Data on 1 molecule can be found in paper PMC3656124, “DNA Topoisomerase II Is Involved in Regulation of Cyst Wall Protein Genes and Differentiation in Giardia lamblia” (PLoS Neglected Tropical Diseases, 2013).

One data set deals with T1, Topo IIC (Giardia lamblia, UniProt E2RU90 489-1491).
T1 sequence: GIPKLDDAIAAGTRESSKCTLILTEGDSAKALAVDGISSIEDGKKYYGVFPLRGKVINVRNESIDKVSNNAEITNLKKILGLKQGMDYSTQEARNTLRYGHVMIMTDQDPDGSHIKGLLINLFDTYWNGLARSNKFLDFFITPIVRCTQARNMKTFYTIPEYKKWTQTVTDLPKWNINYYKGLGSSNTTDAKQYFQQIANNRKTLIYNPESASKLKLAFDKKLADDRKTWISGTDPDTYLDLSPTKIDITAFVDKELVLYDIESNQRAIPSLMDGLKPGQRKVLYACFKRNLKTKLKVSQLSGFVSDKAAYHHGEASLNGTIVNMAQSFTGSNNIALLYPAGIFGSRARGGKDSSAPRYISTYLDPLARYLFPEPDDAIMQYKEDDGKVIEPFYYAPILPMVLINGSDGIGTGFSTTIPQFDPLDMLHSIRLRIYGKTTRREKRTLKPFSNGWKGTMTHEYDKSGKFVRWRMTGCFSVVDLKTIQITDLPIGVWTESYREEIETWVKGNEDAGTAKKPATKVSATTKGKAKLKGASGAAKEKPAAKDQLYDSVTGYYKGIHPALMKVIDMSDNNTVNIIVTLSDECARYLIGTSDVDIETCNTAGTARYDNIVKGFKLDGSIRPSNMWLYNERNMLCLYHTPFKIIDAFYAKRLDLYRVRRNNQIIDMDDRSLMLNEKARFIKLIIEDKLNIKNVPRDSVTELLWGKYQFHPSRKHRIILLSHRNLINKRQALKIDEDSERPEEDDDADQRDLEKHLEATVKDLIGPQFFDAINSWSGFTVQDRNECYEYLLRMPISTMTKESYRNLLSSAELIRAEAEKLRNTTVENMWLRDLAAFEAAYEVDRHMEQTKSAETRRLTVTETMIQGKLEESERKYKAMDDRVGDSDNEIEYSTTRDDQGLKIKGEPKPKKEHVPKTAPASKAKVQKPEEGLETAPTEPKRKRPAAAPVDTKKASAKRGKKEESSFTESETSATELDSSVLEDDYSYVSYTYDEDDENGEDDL
Briefly: EMSA; EMSA: 0.02 pmol 5'-labeled probe, 5 ng protein, 20 ul, 0.5 ug poly(dI-dC), 15 min, room temperature, 6% acrylamide gel; buffer, salt and pH only by citation. The conditions noted are these: protein: recombinant; tags: C-terminal V5-His; chain copies: 2; label: 5'-32P. For orientation: In EMSA bound probe runs differently from free probe, usually more slowly.

The target of another data set is T2, Topo IICm1 (Giardia lamblia, UniProt E2RU90 489-1491, Y847H).
T2 sequence: T1 sequence with Y359H
Described as above. The note with it: protein: recombinant; tags: C-terminal V5-His; chain copies: 2; label: 5'-32P.

B1: IIBS (dsDNA)
DNA 1: ATGAAATCTAACAATGCGCTCATCGTCATCCTCGGC
DNA 2: GCCGAGGATGACGATGAGCGCATTGTTAGATTTCAT
With B1, the binding result in the data set with Topo IIC and in the data set with Topo IICm1 was “binds” throughout.
